{
  "source": "paper PMC2148115",
  "biological_target": "Tubulin (αβ-tubulin heterodimer) from pig brain (pig) (UniProt P02550)",
  "test": "AUC",
  "data": [
    {"substance": "MAP2C (from UniProt P15146-3 1-467) (natural protein)", "values": [
      {"measurement": "percent of the protein in the 19.5 S species, molar ratio to tubulin 0.43:1", "value": 21, "unit": "%"},
      {"measurement": "percent of the protein in the 28.5 S species, molar ratio to tubulin 0.43:1", "value": 26, "unit": "%"}
    ]}
  ]
}
